Columns and labels:
MS2 coat protein [1] = assay: apparent KD of MS2 coat protein; higher = weaker reporter binding; conditions: Eterna round: R101
Method: (§1)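 RNA-MaP: designed FMN/MS2 RNA switches (84 nt design region) are transcribed on-chip within common flanks and titrated with SNAP-549-labelled MS2 coat protein (about 1-3000 nM) in 100 mM Tris pH 7.5, 80 mM KCl, 4 mM MgCl2, without or with 200 uM FMN. Median apparent KD per design; activation ratio = KD,OFF / KD,ON.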

MS2 coat protein [2] = assay: apparent KD of MS2 coat protein; designed switch direction (-1 OFF switch, 1 ON switch): -1; higher = weaker reporter binding; conditions: Eterna round: R98
Method: as §1

MS2 coat protein [3] = assay: apparent KD of MS2 coat protein; designed switch direction (-1 OFF switch, 1 ON switch): 1; higher = weaker reporter binding; conditions: Eterna round: R98
Method: as §1

Row | Sequence | apparent KD of MS2 coat protein (MS2 coat protein [1]; input ligand: FMN 200 uM) [µM] | apparent KD of MS2 coat protein (MS2 coat protein [1]; input ligand: none) [µM] | further results
1 | AGAGCUGCUCAGAAGGAGGAUCACCCUUUCGAAAGAAAUACGGAGGCUGAAAAGCCUCCGAAAUUCUAGGAUAUGAGCAGCUCA [#SharedSequence - IExNG2: 7] (puzzle (switch architecture): Inverted Exclusion NG 2) | 0.133 | 0.167 | –
2 | CCUGCACUUCAAGGAUAUCCAGUCGUUUCGACUGGAGAAGGUGAGGAUCACCCACCUAGCCUGACGUUUGUCAGGCAUGCAGGU [#AddUracilToBrourdLoops 3 - Jieux - Exclusion NG1] (puzzle (switch architecture): Exclusion NG 1) | 0.00878 | 0.00876 | –
3 | UUCUGUGCCCAAAGUUUAAGCACAUGAGGAUCACCCAUGUGAAAGGAUAUGUGGCAUGUAAUGUUAUAGAAGGUUCACAAUCAA [Esadi] | – | – | apparent KD of MS2 coat protein (MS2 coat protein [2]; input ligand: FMN 200 uM): 0.0239 µM; apparent KD of MS2 coat protein (MS2 coat protein [2]; input ligand: none): 0.0158 µM
4 | UAAAUAAAUCCUAGAGGAUCACCCUAGGAUAUGAGGCUGCACCUCGGAUAAUCCGAGGUGCAGCCUCAGAAGGAGGGUAAUAAA [#SharedSequence - SLExNG3: 1-2] (puzzle (switch architecture): Small Loop Exclusion NG 3) | 0.0431 | 0.0144 | –
5 | CCUGCACUUCAAGGAUAUCCAGUCGAAACGACUGGAGAAGGUGAGGAUCACCCAUCUAGCCUGACGAAAGUCAGGCAUGCAGGA [#SharedSequence - ExNG1-7] (puzzle (switch architecture): Exclusion NG 1) | 0.101 | 0.0904 | –
6 | UGGUAUAAGGGCAUUACACAUGAGGAUCACCCAUGUACGUUAGAGGAUAUGCAUUCCAGUCGAACGUAGAAGGUUAGAGAAGGG [Morebubblesahh#8abcdefghij] | – | – | apparent KD of MS2 coat protein (MS2 coat protein [2]; input ligand: FMN 200 uM): 0.15 µM; apparent KD of MS2 coat protein (MS2 coat protein [2]; input ligand: none): 0.113 µM
7 | CCAUAAAAGAUCCAAAAUUACAACAUGAGGAUCACCCAUGUGCAGGAUAUCGUGAAAGUAAAAUACGAGAAGGGCAAGAACUGC [salish99_ExNG3_r2_004] | – | – | apparent KD of MS2 coat protein (MS2 coat protein [2]; input ligand: FMN 200 uM): 0.425 µM; apparent KD of MS2 coat protein (MS2 coat protein [2]; input ligand: none): 0.43 µM
8 | AAAGAUUUUUAAGGAUAUCAGUGGCAAAGCCACUGAGAAGGUGAGGAUCACCCAUCUACGUGACCCUGGAAACAGGGUCACGAA [#SharedSequence - ExNG1-16] (puzzle (switch architecture): Exclusion NG 1) | 0.0969 | 0.0567 | –
9 | UCAUAAUAGAUCCUAUUUAUCUACAUGAGGAUCACCCAUGUGCAGGAUAUGCUAAAAUUAAAAUAGCAGAAGGGCAAUUUCAGC [JR_ExcNG3_Sub013] | – | – | apparent KD of MS2 coat protein (MS2 coat protein [2]; input ligand: FMN 200 uM): 0.359 µM; apparent KD of MS2 coat protein (MS2 coat protein [2]; input ligand: none): 0.0943 µM
10 | GGUCGACCUCAAGGAUAUGGACUGCUUUGCAGUCCAGAAGGUGAGGAUCACCCAUCUACGGUCAGGUUUCUGACCGAUCGACCU [#AddUracilToBrourdLoops 6 - Jieux - Exclusion NG1] (puzzle (switch architecture): Exclusion NG 1) | 0.26 | 0.282 | –
11 | GUAGCAUUCUGAGGAUAUUCAUACCGGAAACGGACAUGAGGAUCACCCAUGUGGCGAAAGCCUUGGGAGAAGGCAGUAUGCUAC [#DoubleMagnetSystem - Xeonanis 25 9 - Original] (puzzle (switch architecture): Same State NG 2) | 0.00921 | 0.247 | –
12 | AAAGAUUUUUAAGGAUAUGACUCCGAAACGGAGUCAGAAGGUGAGGAUCACCCACCUAGCUCAGGGUCGAAAGACCCUGAGCAA [#SharedSequence - ExNG1-13] (puzzle (switch architecture): Exclusion NG 1) | 0.00948 | 0.00902 | –
13 | AGACCUGCUCAGAAGGCGGAUACGAGGCUGGAAACAGCCUCGUAAUUAAAUCUUCGAGGAUCACCCGAGGAUAUGAGCAGGUCA [#SharedSequence - IExNG2: 13] (puzzle (switch architecture): Inverted Exclusion NG 2) | 0.0284 | 0.0103 | –
14 | ACAGGUCGUGAGAAGGCGGGUGGCACCGUCGAAAGACGGUGCAAUUAAAAUCUUCGAGGAUCACCCGAGGAUAUCACGACCUGA [#SharedSequence - IExNG2: 17] (puzzle (switch architecture): Inverted Exclusion NG 2) | 0.0286 | 0.0559 | –
15 | GGUCGACCUCAAGGAUAUGGACUGCUUUGCAGUCCAGAAGGUGAGGAUCACCCACCUACGGUCAGGUUUCUGACCGAUCGACCU [#AddUracilToBrourdLoops 2 - Jieux - Exclusion NG1] (puzzle (switch architecture): Exclusion NG 1) | 0.0792 | 0.0142 | –
16 | GGACUCACUUGAGGAUAUCGAGUGGAAUACACUCGAGAAGGCAGGAAAACCUGAGGAUCACCCAGGUAAGAGUCCAAUAAUAAU [Same State NG1 - A3C, U17G Submission 3C] | – | – | apparent KD of MS2 coat protein (MS2 coat protein [3]; input ligand: FMN 200 uM): 0.0171 µM; apparent KD of MS2 coat protein (MS2 coat protein [3]; input ligand: none): 0.0179 µM
17 | CUGCAAAUCUUAGGAUAUGCUCAGGAAUACUGAGCAGAAGGAAGAUAUACCUGAGGAUCACCCAGGUAAAACUGGAGCAGAAUA [Same State NG1 - A3C, U17G Submission 8G U68A, U7A] | – | – | apparent KD of MS2 coat protein (MS2 coat protein [3]; input ligand: FMN 200 uM): 0.0243 µM; apparent KD of MS2 coat protein (MS2 coat protein [3]; input ligand: none): 0.0266 µM
18 | CCGGAAACGGGUAGCUGACAUGAGGAUCACCCAUGUGAUACACAGGAUAUGGAUCCUAAUUGGAUCCAGAAGGGUGUCAGCUAC [Mat - Same State NG 3 - JL Mod - D84] | – | – | apparent KD of MS2 coat protein (MS2 coat protein [3]; input ligand: FMN 200 uM): 0.13 µM; apparent KD of MS2 coat protein (MS2 coat protein [3]; input ligand: none): 1.27 µM
19 | UCGUGUUUAACAGGAUAUCCUCAACGACACAUGAGGAUCACCCAUGUUCGGAGCCAAAUGGCUUAGGAGAAGGGUUAGAAACAA [Isceenvere] | – | – | apparent KD of MS2 coat protein (MS2 coat protein [3]; input ligand: FMN 200 uM): 0.0758 µM; apparent KD of MS2 coat protein (MS2 coat protein [3]; input ligand: none): 0.701 µM
20 | UAGAAGCUCACAGGAUAUCAGUAUGCGCGAUCUAACGCAUUAAUGAACUGCUGAGAAGGGUGAGACAUGAGGAUCACCCAUGUA [Enesraadi] (puzzle (switch architecture): Small Loop Same State NG 1) | 0.395 | 0.236 | –
21 | GGUCCAACAUGAGGAUAUGGCACCUUAUUGGUGCCAGAAGGCGUGUCUAUAGACAUGAGGAUCACCCAUGUAAUAAAUUGGACC [SameState #22 NG1] | – | – | apparent KD of MS2 coat protein (MS2 coat protein [3]; input ligand: FMN 200 uM): 0.0454 µM; apparent KD of MS2 coat protein (MS2 coat protein [3]; input ligand: none): 0.796 µM
